Measurements as given in the RNAGym collection of RNA variant scans (doi:10.1093/nar/gkz1192).

B1: CPEB3 Ribozyme (parent)
chain: UAACAGGGGGCCACAGCAGAAGCGUUCACGUCGCAGCCCCUGUCAGAUUCUGGUGAAUCUGCGAAUUCUGCUGUAUAUCUC

Variants of: B1
Assay: self-cleavage, relative activity (ratio to wild type); higher = more cleavage; in vitro, sequencing
How it was run: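 For each CPEB3 ribozyme variant, relative activity is its cleaved/total read fraction divided by the unmutated ribozyme's. Barcoded error-prone PCR libraries were transcribed by T7 RNA polymerase (5 hours, 37°C) and held in DNase I for 15 min before an EDTA stop, with cleavage occurring throughout. Template-switching reverse transcription and Illumina sequencing were used to read the RNAs. A 5-read minimum applied, and results are the mean of three batches.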

Variant | self-cleavage
U43C U49C | 0.24
U43C U49A | 0.26
U43C U49G | 0.26
U43A C44U | 1.11
U43C U51C | 0.77
U43C U51A | 0.71
U43C U51G | 0.75
U43C U48A | 0.29
U43C U48C | 0.25
U43A G61A | 0.97
U43A G61C | 0.36
U43C G63C | 0.3
U43C G63A | 0.47
U43C C81A | 0.92
U43C C81U | 0.7
U43A G73U | 1.26
U43A G73A | 1.28
U43A G46A | 0.44
U43A G46U | 0.45
U43C G61A | 0.22
U43A U69G | 0.82
U43A U69A | 0.79
U43A U69C | 0.72
U43C C59A | 0.12

Variant | self-cleavage
U43C C59U | 0.52
U43G | 0.28
U43C | 0.67
U43C G46A | 0.22
U43C G46U | 0.16
U43C G46C | 0.16
U43C G55U | 0.52
U43C G55C | 0.33
U43A U60A | 0.53
U43A U60C | 0.54
U43C C62G | 0.21
U43C C62U | 0.3
U43C C62A | 0.31
U43A C68U | 1.15
U43C U58G | 0.19
U43C U58C | 0.23
U43C U58A | 0.29
U43C A45C | 0.3
U43C A45G | 0.5
U43C A45U | 0.3
U43A U74A | 1.35
U43A U74C | 1.24
U43A U78C | 1.13
U43A U78G | 1.29

Variant | self-cleavage
U43A U78A | 1.29
U43C A47U | 0.39
U43C A47G | 0.58
U43C A47C | 0.06
U43C U67C | 0.2
U43C U67A | 0.36
U43C G70C | 0.1
U43C G70U | 0.18
U43C G70A | 0.31
U43C A56C | 0.18
U43C A56U | 0.26
U43C A56G | 0.33
U43C U80A | 0.73
U43C U80G | 1.01
U43C U80C | 0.68
U43C U78C | 0.49
U43C U78A | 0.63
U43C U78G | 0.65
U43A U76C | 1.14
U43A U76A | 1.23
U43A A75G | 1.01
U43A A75C | 1.36
U43A A75U | 1.19
U43A G63U | 1.26

Variant | self-cleavage
U43A G63A | 1.13
U43C A57U | 0.22
U43C A57G | 0.3
U43G A45G | 0.19
U43G A45U | 0.18
U43C G53U | 0.6
U43C G53A | 0.87
U43C G53C | 0.88
U43C C71U | 0.36
U43C C71A | 0.36
U43C C71G | 0.28
U43C C68U | 0.32
U43C C68A | 0.28
U43C C68G | 0.11
U43C G52U | 1.06
U43C G52A | 0.92
U43C G52C | 0.77
U43A U54A | 1.25
U43A U54C | 1.19
U43C A77U | 0.78
U43C A77G | 0.58
U43C C44U | 0.38
U43C C44G | 0.09
U43C U69G | 0.43

Variant | self-cleavage
U43C U69C | 0.31
U43C U69A | 0.32
U43A U48C | 0.71
U43A C59G | 0.41
U43C A75G | 0.39
U43C A75C | 0.84
U43C A75U | 0.62
U43A G53A | 1.2
U43C U60C | 0.26
U43C U60A | 0.27
U43C U60G | 0.3
U43A A77U | 1.23
U43A A77C | 1.18
U43A A77G | 1.2
U43G A56U | 0.36
U43G A56G | 0.23
U43A G52U | 1.26
U43A G52C | 1.19
U43A G52A | 1.23
U43C C79U | 0.91
U43C C79A | 0.8
U43C G73C | 1.19
U43C G73U | 1.2
U43C G73A | 1.13

Variant | self-cleavage
U43A G55A | 0.77
U43A U58A | 0.72
U43A U58C | 0.67
U43A U58G | 0.31
U43C A64U | 0.29
U43C A64G | 0.51
U43A U51C | 0.88
U43A U51G | 1.15
U43A U51A | 0.97
U43G A47U | 0.1
U43A U49G | 0.52
U43A U49A | 0.8
U43A U49C | 0.53
U43A C79A | 1.22
U43A C50A | 1.07
U43C U66A | 0.24
U43C U66C | 0.33
U43C U66G | 0.45
U43C U72C | 0.76
U43C U72G | 0.59
U43C U72A | 0.4
U43A U67C | 0.33
U43A U67A | 0.83
U43C U74C | 0.89

Variant | self-cleavage
U43C U74G | 0.86
U43C U74A | 0.85
U43A U66A | 0.69
U43A U66C | 0.53
U43A U72C | 1.17
U43A U72G | 1.02
U43A U72A | 0.71
U43C A65G | 0.31
U43C A65U | 0.19
U43G A57G | 0.21
U43A U80A | 1.22
U43A U80C | 1.15
U43A G70U | 0.54
U43A C62U | 0.39
U43C C50A | 0.31
U43C C50U | 0.24
U43C U76G | 0.69
U43C U76C | 0.73
U43C U76A | 0.89
U43C U54A | 0.69
U43C U54G | 0.49
U43C U54C | 0.32
U43A C71U | 0.49
